Source: patent publication US20250092124A1 (YUNNAN BAIYAO GROUP, published 2025)
Changes are numbered by the printed parent chain.

Legend:
GDF15-mFC protein = target: T1, GDF15-mFC protein (human; mouse, UniProt Q99988 197-308); experiment: blocking ELISA as in Example 4, GFRAL-hIgG1 Fc coated (competitor), GDF15-mFC mixed with antibody
T1 construct: extracellular domain;domain: IgG2a-FC; also called GDF15-mFc fusion protein
T1 sequence (looked up): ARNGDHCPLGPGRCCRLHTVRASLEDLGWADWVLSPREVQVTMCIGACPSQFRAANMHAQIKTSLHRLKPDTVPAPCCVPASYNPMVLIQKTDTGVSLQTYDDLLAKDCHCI
Method: A fusion protein comprising the extracellular region of GFRAL protein (Genbank accession number NM_207410.2) and human IgG1-FC (Genbank accession number CAC20454.1) was diluted to […] with coating solution, followed by adding to ELISA plate at 50 μl/well and incubating at 4° C. overnight. The solution in the wells was discarded and the plate was washed 3 times with washing solution, each time for 3-5 minutes, and dried via tapping. 200 μl of blocking solution was added to each well followed by incubating at 4° C. overnight. The plate was washed 3 times with washing solution, and the coated plate may be stored at −20° C. or 4° C. for future use.
The antibodies to be tested, positive control antibody AV380-mIgG1 and blank control (PBS) were added to the wells. […] At the same time, GDF15-mFC protein (GDF15: Genbank accession number NM_004864.3; mFC: Genbank accession number AAH31470.1) was added at 20 ng/well and mixed with the antibodies to be tested. The wells were incubated at 37° C. for 1 hour, washed, and dried via tapping. Then the enzyme-labeled secondary antibody, horseradish peroxidase-labeled goat anti-mouse IgG (SIGMA, catalog number A9044-2 ml) was added to each well, at a dilution of 1:10000, 50-100 μl/well. The wells were incubated at 37° C. for 2 hours, washed, and dried via tapping. 100 μl of freshly prepared developing solution TMB was added to each well and incubated at 37° C. for 30 minutes. 2 mol/L H₂SO₄ was added to terminate the reaction, and the OD value was obtained on an enzyme-linked immunosorbent reader.
(§1) The experiment was performed as detailed in Example 4, except that the antibodies to be tested (the humanized antibodies), negative control antibody (hIgG1), and positive control antibodies Ponsegromab and AV380-hIgG1 were added to each well of the coated plate.

[1] = target: T2, GDF15-HIS (ACROBiosystems, CAT #: GD5-H5149) (human, UniProt Q99988 197-308); experiment: cell-based or functional assay
T2 sequence (looked up): T1 sequence (looked up)

cynoGDF15-mFC = target: T3, cynoGDF15-mFC (monkey (cyno); mouse, UniProt G7PWZ3 197-308); experiment: ELISA, cynoGDF15-mFC coated
T3 construct: also called monkey GDF15 (cynoGDF15)
T3 sequence (looked up): T1 sequence (looked up) with H6R, R21H, A54E, T63M, S64N, I112V
Method: as §1, with “2,” for “4,”, “that the coating protein was cynoGDF15-mFC (GDF15: Genbank accession number EHH29815.1; mFC: Genbank accession number AAH31470.1), and” for “that”

[2] = target: T2, GDF15-HIS (ACROBiosystems, CAT #: …); experiment: ELISA in stability test, antibody after 5 freeze-thaw cycles; coated antigen not named
Method: An appropriate amount of each antibody was taken and adjusted to 10 mg/mL, followed by freezing at −80° C. for 10 min, and placing in an ice-water mixture to slowly thaw. The above procedure was repeated 5 times. Protein aggregation was detected using SEC-HPLC, and protein binding activity change was detected by ELISA.

[3] = target: T2, GDF15-HIS (ACROBiosystems, CAT #: …); experiment: ELISA in stability test, antibody after 40 °C for 1 week; coated antigen not named
Method: An appropriate amount of each antibody was taken and adjusted to 10 mg/mL, and was placed at 40° C. for 1 and 2 weeks. Protein aggregation was detected using SEC-HPLC, and protein binding activity change was detected by ELISA.

- IC50 (GDF15-mFC protein): 0.253 µg/mL
- OD450.Max (GDF15-mFC protein): 1.05 OD450
- Bottom (luciferase activity fold, fitted curve), HEK293 SRE-LUC2-cRET-GFRAL reporter cells [1]: 1.1
- IC50, luciferase in HEK293 SRE-LUC2-cRET-GFRAL reporter cells stimulated with GDF15-His 5 ng/ml [1]: 0.0225 µg/mL
- EC50 (cynoGDF15-mFC): 0.0816 µg/mL
- OD450.Max (cynoGDF15-mFC): 1.03 OD450
- EC50 [2]: 0.0648 µg/mL
- EC50 [3]: 0.0641 µg/mL
B1: 53E5(hz) (antibody, human IgG1, kappa, V domains shown)
VH: QVQLQESGPGLVKPSETLSLTCTFSGFSLSTSGMGVGWIRQPPGKGLEWLAHILWDDVKRYNPALKSRLTISKDSSKSQISLKLSSVTAADTAVYYCVQMAWDWFAYWGQGTTVTVSS
VL: DIQMTQSPSSLSASVGDRVTITCKASQNVDTNVAWYQQKPGQSPKALIYSASYRSSGVPSRFSGSGSGTDFTLTISSLQPEDFATYYCQQYHSYPTFGQGTRLEIKR
notes: also called S3E5 (hz); humanized antibody 53E5
